Consider one protein from ChEMBL document CHEMBL2073821, “Immunohistochemical and functional characterization of pH-dependent intestinal absorption of weak organic acids by the monocarboxylic acid transporter MCT1” (J Pharm Pharmacol, 1999).

One may read the Km as the concentration of substrate that gives half-maximal velocity.

Substrate in series [1]: C[C@H](O)C(=O)O
The series can be described thus: (§1) TP_TRANSPORTER: uptake in MCT1-expressing MDA-MB231 cells. The format is functional, cell-based. Conditions: MDA-MB-231.

Substrate in series [2]: O=C(O)c1ccccc1
The series is described as §1. The format is functional, cell-based. The conditions noted are these: MDA-MB-231.

B1: Monocarboxylate transporter 1 (Rattus norvegicus), P53987 (protein)
chain: MPPAIGGPVGYTPPDGGWGWAVVVGAFISIGFSYAFPKSITVFFKEIEIIFSATTSEVSWISSIMLAVMYAGGPISSILVNKYGSRPVMIAGGCLSGCGLIAASFCNTVQELYFCIGVIGGLGLAFNLNPALTMIGKYFYKKRPLANGLAMAGSPVFLSTLAPLNQAFFGIFGWRGSFLILGGLLLNCCVAGSLMRPIGPQQGKVEKLKSKESLQEAGKSDANTDLIGGSPKGEKLSVFQTVNKFLDLSLFTHRGFLLYLSGNVVMFFGLFTPLVFLSNYGKSKHFSSEKSAFLLSILAFVDMVARPSMGLAANTRWIRPRVQYFFAASVVANGVCHLLAPLSTTYVGFCIYAGVFGFAFGWLSSVLFETLMDLVGPQRFSSAVGLVTIVECCPVLLGPPLLGRLNDMYGDYKYTYWACGVILIIAGLYLFIGMGINYRLVAKEQKAEEKKRDGKEDETSTDVDEKPKKTMKETQSPAPLQNSSGDPAEEESPV
Regarding B1, the Km was 2280 µM in series [1] and 3050 µM in series [2].
